Reference: IntAct's records for PubMed 35512704

B1: Mothers against decapentaplegic homolog 4 (Homo sapiens), Q13485 (parent)
chain: MDNMSITNTPTSNDACLSIVHSLMCHRQGGESETFAKRAIESLVKKLKEKKDELDSLITAITTNGAHPSKCVTIQRTLDGRLQVAGRKGFPHVIYARLWRWPDLHKNELKHVKYCQYAFDLKCDSVCVNPYHYERVVSPGIDLSGLTLQSNAPSSMMVKDEYVHDFEGQPSLSTEGHSIQTIQHPPSNRASTETYSTPALLAPSESNATSTANFPNIPVASTSQPASILGGSHSEGLLQIASGPQPGQQQNGFTGQPATYHHNSTTTWTGSRTAPYTPNLPHHQNGHLQHHPPMPPHPGHYWPVHNELAFQPPISNHPAPEYWCSIAYFEMDVQVGETFKVPSSCPIVTVDGYVDPSGGDRFCLGQLSNVHRTEAIERARLHIGKGVQLECKGEGDVWVRCLSDHAVFVQSYYLDREAGRAPGDAVHKIYPSAYIKVFDLRQCHRQMQQQAATAQAAAAAQAAAVAGNIPGPGSVGGIAPAISLSAAAGIGVDDLRRLCILRMSFVKGWGPDYPRQSIKETPCWIEIHLHRALQLLDEVLHTMPIADPQPLD

Variants of: B1
Details: with e2f3_human E2F3, O00716

Row | Variant | effect of a mutation on the interaction
1 | D351H | with no effect

Variants of: B1
Details: with e2f4_human E2F4, Q16254

Row | Variant | effect of a mutation on the interaction
2 | D351H | with no effect

Variants of: B1
Details: with e2f5_human E2F5, Q15329

Row | Variant | effect of a mutation on the interaction
3 | D351H | with no effect

Variants of: B1
Details: with if4e_human EIF4E

Row | Variant | effect of a mutation on the interaction
4 | D351H | with no effect

Variants of: B1
Details: with epha7_human EPHA7, Q15375

Row | Variant | effect of a mutation on the interaction
5 | D351H | with no effect

Variants of: B1
Details: with ephb1_human EPHB1, P54762

Row | Variant | effect of a mutation on the interaction
6 | D351H | with no effect

Variants of: B1
Details: with erbb3_human ERBB3, P21860

Row | Variant | effect of a mutation on the interaction
7 | D351H | with no effect

Variants of: B1
Details: with erbb4_human ERBB4, Q15303

Row | Variant | effect of a mutation on the interaction
8 | D351H | with no effect

Variants of: B1
Details: with esr1_human ESR1, P03372
Sequence of esr1_human ESR1, P03372 (P03372 whole entry): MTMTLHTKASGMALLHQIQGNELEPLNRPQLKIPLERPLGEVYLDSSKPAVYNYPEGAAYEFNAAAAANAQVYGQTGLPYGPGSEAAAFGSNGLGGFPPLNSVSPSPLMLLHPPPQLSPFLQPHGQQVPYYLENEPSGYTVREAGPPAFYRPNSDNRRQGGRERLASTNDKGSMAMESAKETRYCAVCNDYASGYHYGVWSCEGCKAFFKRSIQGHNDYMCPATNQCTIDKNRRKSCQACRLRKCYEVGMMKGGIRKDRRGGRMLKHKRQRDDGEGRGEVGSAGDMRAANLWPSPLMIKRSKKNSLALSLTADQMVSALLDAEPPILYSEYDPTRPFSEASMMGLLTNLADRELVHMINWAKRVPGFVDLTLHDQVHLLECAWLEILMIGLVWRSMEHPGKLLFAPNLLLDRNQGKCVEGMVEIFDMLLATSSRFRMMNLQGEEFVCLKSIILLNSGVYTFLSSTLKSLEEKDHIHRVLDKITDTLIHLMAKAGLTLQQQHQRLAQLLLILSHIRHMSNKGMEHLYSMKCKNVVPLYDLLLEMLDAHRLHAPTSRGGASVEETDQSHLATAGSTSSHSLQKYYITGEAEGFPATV

Row | Variant | effect of a mutation on the interaction
9 | D351H | with no effect

Variants of: B1
Details: with etv1_human ETV1, P50549

Row | Variant | effect of a mutation on the interaction
10 | D351H | with no effect

Variants of: B1
Details: with fadd_human FADD

Row | Variant | effect of a mutation on the interaction
11 | D351H | with no effect

Variants of: B1
Details: with facd2_human FANCD2, Q9BXW9
Sequence of facd2_human FANCD2, Q9BXW9 (Q9BXW9 whole entry): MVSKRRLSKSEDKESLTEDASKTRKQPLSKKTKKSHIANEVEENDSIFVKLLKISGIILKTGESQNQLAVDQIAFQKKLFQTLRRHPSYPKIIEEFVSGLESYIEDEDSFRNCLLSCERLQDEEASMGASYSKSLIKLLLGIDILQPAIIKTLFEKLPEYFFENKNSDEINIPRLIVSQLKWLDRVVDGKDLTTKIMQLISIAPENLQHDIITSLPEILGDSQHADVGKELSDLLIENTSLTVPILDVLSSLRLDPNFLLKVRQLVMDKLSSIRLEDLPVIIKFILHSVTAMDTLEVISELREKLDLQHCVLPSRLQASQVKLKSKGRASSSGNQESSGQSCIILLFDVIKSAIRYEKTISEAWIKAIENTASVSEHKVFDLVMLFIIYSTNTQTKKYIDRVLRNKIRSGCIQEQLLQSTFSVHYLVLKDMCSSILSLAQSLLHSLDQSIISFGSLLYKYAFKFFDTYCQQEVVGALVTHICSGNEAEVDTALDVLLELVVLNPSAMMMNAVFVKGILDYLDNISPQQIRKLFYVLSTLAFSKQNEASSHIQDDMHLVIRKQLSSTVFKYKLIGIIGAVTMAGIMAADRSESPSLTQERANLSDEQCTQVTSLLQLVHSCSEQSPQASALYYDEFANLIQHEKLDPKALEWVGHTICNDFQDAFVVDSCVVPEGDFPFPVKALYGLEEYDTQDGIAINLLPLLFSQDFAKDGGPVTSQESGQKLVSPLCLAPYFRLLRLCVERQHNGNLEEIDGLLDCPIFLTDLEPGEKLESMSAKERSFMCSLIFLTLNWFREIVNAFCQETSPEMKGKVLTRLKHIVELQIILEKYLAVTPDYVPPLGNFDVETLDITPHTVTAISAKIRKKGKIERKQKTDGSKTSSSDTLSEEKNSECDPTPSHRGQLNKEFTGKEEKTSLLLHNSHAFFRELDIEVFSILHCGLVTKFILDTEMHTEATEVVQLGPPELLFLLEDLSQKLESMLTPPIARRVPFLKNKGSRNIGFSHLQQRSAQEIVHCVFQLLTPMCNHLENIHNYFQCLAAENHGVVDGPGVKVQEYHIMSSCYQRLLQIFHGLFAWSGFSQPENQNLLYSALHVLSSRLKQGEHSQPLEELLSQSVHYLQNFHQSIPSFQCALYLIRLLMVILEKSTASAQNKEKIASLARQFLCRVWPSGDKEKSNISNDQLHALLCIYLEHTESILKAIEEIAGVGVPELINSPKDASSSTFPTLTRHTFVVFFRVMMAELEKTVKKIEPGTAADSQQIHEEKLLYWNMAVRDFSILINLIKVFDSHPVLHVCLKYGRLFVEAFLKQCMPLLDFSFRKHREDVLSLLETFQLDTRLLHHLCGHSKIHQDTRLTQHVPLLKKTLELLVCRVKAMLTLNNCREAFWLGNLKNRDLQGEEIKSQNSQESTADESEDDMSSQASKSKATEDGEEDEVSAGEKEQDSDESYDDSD

Row | Variant | effect of a mutation on the interaction
12 | D351H | with no effect

Variants of: B1
Details: with fgf19_human FGF19, O95750
Sequence of fgf19_human FGF19, O95750 (O95750 whole entry): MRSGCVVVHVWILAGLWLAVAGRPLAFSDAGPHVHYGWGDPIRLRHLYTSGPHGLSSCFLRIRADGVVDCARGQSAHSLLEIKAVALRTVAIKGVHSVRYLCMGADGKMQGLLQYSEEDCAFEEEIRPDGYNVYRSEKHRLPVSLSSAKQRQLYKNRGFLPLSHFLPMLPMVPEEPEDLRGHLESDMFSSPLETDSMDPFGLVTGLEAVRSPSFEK

Row | Variant | effect of a mutation on the interaction
13 | D351H | with no effect

Variants of: B1
Details: with fgfp1_human FGFBP1, Q14512

Row | Variant | effect of a mutation on the interaction
14 | D351H | with no effect

Variants of: B1
Details: with fgfr3_human FGFR3, P22607

Row | Variant | effect of a mutation on the interaction
15 | D351H | with no effect

Variants of: B1
Details: with fgfr4_human FGFR4, P22455

Row | Variant | effect of a mutation on the interaction
16 | D351H | with no effect

Variants of: B1
Details: with fumh_human FH

Row | Variant | effect of a mutation on the interaction
17 | D351H | with no effect

Variants of: B1
Details: with foxo1_human FOXO1, Q12778

Row | Variant | effect of a mutation on the interaction
18 | D351H | with no effect

Variants of: B1
Details: with foxo3_human FOXO3, O43524
Sequence of foxo3_human FOXO3, O43524 (O43524 whole entry): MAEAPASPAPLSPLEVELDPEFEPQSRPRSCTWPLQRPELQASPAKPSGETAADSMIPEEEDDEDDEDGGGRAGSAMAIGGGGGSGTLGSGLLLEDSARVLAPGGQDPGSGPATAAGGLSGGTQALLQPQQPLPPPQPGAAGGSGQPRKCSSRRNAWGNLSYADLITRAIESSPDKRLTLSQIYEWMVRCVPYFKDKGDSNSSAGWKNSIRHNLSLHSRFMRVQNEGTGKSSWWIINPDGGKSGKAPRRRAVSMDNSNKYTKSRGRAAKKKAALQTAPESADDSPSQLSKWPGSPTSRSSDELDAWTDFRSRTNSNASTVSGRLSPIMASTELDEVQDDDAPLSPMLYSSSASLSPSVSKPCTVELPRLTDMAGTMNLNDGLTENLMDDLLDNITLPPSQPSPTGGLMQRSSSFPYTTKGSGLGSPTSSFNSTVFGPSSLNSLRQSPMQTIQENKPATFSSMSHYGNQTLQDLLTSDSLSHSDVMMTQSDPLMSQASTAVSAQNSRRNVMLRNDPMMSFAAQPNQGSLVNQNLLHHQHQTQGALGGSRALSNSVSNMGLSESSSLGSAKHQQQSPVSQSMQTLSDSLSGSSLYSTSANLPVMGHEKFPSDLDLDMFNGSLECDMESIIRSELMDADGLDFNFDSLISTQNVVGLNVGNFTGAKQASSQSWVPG

Row | Variant | effect of a mutation on the interaction
19 | D351H | with no effect

Variants of: B1
Details: with gbra6_human GABRA6, Q16445

Row | Variant | effect of a mutation on the interaction
20 | D351H | with no effect

Variants of: B1
Details: with gata2_human GATA2, P23769
Sequence of gata2_human GATA2, P23769 (P23769 whole entry): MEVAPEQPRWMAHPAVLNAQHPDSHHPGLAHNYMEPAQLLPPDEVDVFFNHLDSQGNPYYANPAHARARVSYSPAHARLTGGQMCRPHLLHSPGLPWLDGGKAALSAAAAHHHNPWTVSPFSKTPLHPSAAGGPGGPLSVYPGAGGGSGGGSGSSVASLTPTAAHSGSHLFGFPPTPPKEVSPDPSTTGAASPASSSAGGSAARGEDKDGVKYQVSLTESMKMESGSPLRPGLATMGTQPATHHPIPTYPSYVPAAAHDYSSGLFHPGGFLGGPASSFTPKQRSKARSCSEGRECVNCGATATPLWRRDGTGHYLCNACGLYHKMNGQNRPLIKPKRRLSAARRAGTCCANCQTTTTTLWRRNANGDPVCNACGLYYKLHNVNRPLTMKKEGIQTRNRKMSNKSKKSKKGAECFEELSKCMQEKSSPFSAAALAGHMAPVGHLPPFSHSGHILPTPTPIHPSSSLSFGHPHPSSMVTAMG

Row | Variant | effect of a mutation on the interaction
21 | D351H | with no effect

Variants of: B1
Details: with gata3_human GATA3, P23771

Row | Variant | effect of a mutation on the interaction
22 | D351H | with no effect

Variants of: B1
Details: with gna11_human GNA11, P29992
Sequence of gna11_human GNA11, P29992 (P29992 whole entry): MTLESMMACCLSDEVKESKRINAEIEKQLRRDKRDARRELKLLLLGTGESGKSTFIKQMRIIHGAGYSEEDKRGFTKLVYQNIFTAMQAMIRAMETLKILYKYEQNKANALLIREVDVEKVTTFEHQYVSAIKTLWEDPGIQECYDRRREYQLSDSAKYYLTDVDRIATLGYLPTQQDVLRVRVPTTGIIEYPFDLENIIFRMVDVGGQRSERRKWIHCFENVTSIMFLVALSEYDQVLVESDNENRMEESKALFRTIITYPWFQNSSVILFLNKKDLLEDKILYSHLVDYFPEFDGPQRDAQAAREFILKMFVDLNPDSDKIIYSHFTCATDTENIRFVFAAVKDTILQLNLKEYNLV

Row | Variant | effect of a mutation on the interaction
23 | D351H | with no effect

Variants of: B1
Details: with gna13_human GNA13, Q14344

Row | Variant | effect of a mutation on the interaction
24 | D351H | with no effect

Variants of: B1
Details: with gnaq_human GNAQ

Row | Variant | effect of a mutation on the interaction
25 | D351H | with no effect

Variants of: B1
Details: with grb7_human GRB7, Q14451

Row | Variant | effect of a mutation on the interaction
26 | D351H | with no effect

Variants of: B1
Details: with grm1_human GRM1, Q13255
Sequence of grm1_human GRM1, Q13255 (Q13255 whole entry, looked up): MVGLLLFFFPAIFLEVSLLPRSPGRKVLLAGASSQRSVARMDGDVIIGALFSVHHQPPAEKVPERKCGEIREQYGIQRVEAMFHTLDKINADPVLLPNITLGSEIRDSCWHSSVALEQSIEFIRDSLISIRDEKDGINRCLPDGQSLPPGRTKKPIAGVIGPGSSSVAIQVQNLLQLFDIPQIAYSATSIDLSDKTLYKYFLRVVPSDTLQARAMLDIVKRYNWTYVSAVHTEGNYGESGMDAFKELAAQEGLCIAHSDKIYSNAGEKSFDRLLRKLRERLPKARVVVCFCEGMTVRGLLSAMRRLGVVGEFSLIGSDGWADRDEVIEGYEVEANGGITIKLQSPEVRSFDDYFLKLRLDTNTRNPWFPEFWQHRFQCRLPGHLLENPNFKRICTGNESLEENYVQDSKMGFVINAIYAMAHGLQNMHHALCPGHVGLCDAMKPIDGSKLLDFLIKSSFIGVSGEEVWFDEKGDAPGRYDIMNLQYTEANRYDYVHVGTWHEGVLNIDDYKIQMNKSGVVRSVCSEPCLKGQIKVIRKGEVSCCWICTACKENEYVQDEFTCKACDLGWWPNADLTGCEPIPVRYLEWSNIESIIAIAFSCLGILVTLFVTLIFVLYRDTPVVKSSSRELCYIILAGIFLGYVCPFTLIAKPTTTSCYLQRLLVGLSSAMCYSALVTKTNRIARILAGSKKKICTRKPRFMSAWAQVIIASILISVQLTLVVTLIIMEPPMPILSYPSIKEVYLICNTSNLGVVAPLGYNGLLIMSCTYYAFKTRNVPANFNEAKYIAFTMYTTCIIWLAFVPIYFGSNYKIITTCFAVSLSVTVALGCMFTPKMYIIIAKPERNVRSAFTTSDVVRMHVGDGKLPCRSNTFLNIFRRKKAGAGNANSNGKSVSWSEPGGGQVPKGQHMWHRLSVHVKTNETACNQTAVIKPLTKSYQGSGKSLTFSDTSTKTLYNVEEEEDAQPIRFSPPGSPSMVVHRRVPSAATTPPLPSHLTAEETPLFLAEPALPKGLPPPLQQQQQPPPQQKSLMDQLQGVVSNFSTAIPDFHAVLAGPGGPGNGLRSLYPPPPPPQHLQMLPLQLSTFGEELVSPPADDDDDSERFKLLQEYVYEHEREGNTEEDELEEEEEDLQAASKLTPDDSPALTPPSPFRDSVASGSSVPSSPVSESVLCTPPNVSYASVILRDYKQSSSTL

Row | Variant | effect of a mutation on the interaction
27 | D351H | with no effect

Variants of: B1
Details: with grm3_human GRM3, Q14832

Row | Variant | effect of a mutation on the interaction
28 | D351H | with no effect

Variants of: B1
Details: with gsk3a_human GSK3A

Row | Variant | effect of a mutation on the interaction
29 | D351H | with no effect

Variants of: B1
Details: with hdac1_human HDAC1, Q13547

Row | Variant | effect of a mutation on the interaction
30 | D351H | with no effect

Variants of: B1
Details: with hdac3_human HDAC3, O15379

Row | Variant | effect of a mutation on the interaction
31 | D351H | with no effect

Variants of: B1
Details: with hgf_human HGF

Row | Variant | effect of a mutation on the interaction
32 | D351H | with no effect

Variants of: B1
Details: with h31_human H3C1, P68431

Row | Variant | effect of a mutation on the interaction
33 | D351H | with no effect

Variants of: B1
Details: with hlab_human HLA-B

Row | Variant | effect of a mutation on the interaction
34 | D351H | with no effect

Variants of: B1
Details: with rash_human HRAS

Row | Variant | effect of a mutation on the interaction
35 | D351H | with no effect

Variants of: B1
Details: with hs90a_human HSP90AA1, P07900

Row | Variant | effect of a mutation on the interaction
36 | D351H | with no effect

Variants of: B1
Details: with il7ra_human IL7R

Row | Variant | effect of a mutation on the interaction
37 | D351H | with no effect

Variants of: B1
Details: with irf6_human IRF6, O14896

Row | Variant | effect of a mutation on the interaction
38 | D351H | with no effect

Variants of: B1
Details: with irs1_human IRS1, P35568

Row | Variant | effect of a mutation on the interaction
39 | D351H | with no effect

Variants of: B1
Details: with jak1_human JAK1, P23458

Row | Variant | effect of a mutation on the interaction
40 | D351H | with no effect

Variants of: B1
Details: with kat2a_human KAT2A

Row | Variant | effect of a mutation on the interaction
41 | D351H | with no effect

Variants of: B1
Details: with kdm5c_human KDM5C

Row | Variant | effect of a mutation on the interaction
42 | D351H | with no effect

Variants of: B1
Details: with kdm6a_human KDM6A

Row | Variant | effect of a mutation on the interaction
43 | D351H | with no effect

Variants of: B1
Details: with vgfr2_human KDR

Row | Variant | effect of a mutation on the interaction
44 | D351H | with no effect
